Test results from the supplement of paper PMC7125110.
± gives the standard error. This sample holds only a part of the variants without activity.

B1: glmS ribozyme (parent)
chain: AUAAAAGCGCCAGAACUACAGAAAUGUAGUUGACGAGGAGGAGGUUUAUCGAAUUUUCGGCGGAUGCCUCCAAA

Variants of: B1
Assay: self-cleavage kobs at 2500 uM GlcN6P; higher = faster cleavage; RNA array
Conditions: with glucosamine-6-phosphate
Procedure, shortened: (§1)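 Tiles of sequenced MiSeq chips were imaged over ~14 h at 37 °C. On them, barcoded ribozyme variants had been transcribed in situ by E. coli RNA polymerase and were tracked via a hybridised Cy3 probe while glucosamine-6-phosphate (40 μM to 10 mM) in HEPES/KCl/Mg(OAc)2 buffer flowed in. Per-tile medians, normalised to baseline and to non-cleaving reference variants, were fit to one- or two-exponential decays for kobs, and weighted Michaelis–Menten fits gave kcat and KM.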

C10G A33G G51U and C8G A14U A39G cannot be ordered by “self-cleavage kobs at 2500 uM GlcN6P” value: less than 1e-05 s⁻¹ for the first, less than 1e-05 s⁻¹ for the second.

Going from A12G G38U C67G C68A to C8G G9U C16A A53C, the “self-cleavage kobs at 2500 uM GlcN6P” value falls from 9.28e-05 ± 2.6e-05 s⁻¹ to less than 1e-05 s⁻¹.

Going from C10G G43A A52G A53C C70U to C11G U55A C61A U69A C71G, the “self-cleavage kobs at 2500 uM GlcN6P” value rises from less than 1e-05 s⁻¹ to 0.000284 ± 8.5e-05 s⁻¹.

C10U G35U G43C and G9A A39G A52C cannot be ordered by “self-cleavage kobs at 2500 uM GlcN6P” value: less than 1e-05 s⁻¹ for the first, less than 1e-05 s⁻¹ for the second.

First: G9C C34U A53U
Second: C11A G21U
The “self-cleavage kobs at 2500 uM GlcN6P” value of the first is lower: less than 1e-05 s⁻¹ for the first, 9.85e-05 ± 2.9e-05 s⁻¹ for the second.

First: C11G U47A C50G C70G
Second: C11G U30C G37U
The “self-cleavage kobs at 2500 uM GlcN6P” value of the first is higher: 0.000352 ± 8.9e-05 s⁻¹ for the first, less than 1e-05 s⁻¹ for the second.

Going from C11A A33G G35U A52G to C11A C16U U54G G59A, the “self-cleavage kobs at 2500 uM GlcN6P” value rises from less than 1e-05 s⁻¹ to 0.000138 ± 3e-05 s⁻¹.

Compared with C8U A15U U31C A36G U46A A52U C58A C67U C70U, G9A A12G U54A C58G C61G C70U is higher in “self-cleavage kobs at 2500 uM GlcN6P” value: less than 1e-05 s⁻¹ for the first, 0.000354 ± 0.00012 s⁻¹ for the second.

Going from G13A C50A U69A to A12G A33G G41C G66A, the “self-cleavage kobs at 2500 uM GlcN6P” value falls from 3.87e-05 ± 1.8e-05 s⁻¹ to less than 1e-05 s⁻¹.

Compared with C11U A33U G59A, C11A G32A G43C U46A C50A G60A is lower in “self-cleavage kobs at 2500 uM GlcN6P” value: 0.000169 ± 6.1e-05 s⁻¹ for the first, less than 1e-05 s⁻¹ for the second.

Compared with C10G A39G G66A C67U C71G, A12U G43U C50U G59A is lower in “self-cleavage kobs at 2500 uM GlcN6P” value: 7e-05 ± 3.1e-05 s⁻¹ for the first, less than 1e-05 s⁻¹ for the second.

C10G G35A G66A and G9A G13U U57C cannot be ordered by “self-cleavage kobs at 2500 uM GlcN6P” value: less than 1e-05 s⁻¹ for the first, less than 1e-05 s⁻¹ for the second.

C10G G13C A42U A52C and G9U C10G C16U cannot be ordered by “self-cleavage kobs at 2500 uM GlcN6P” value: less than 1e-05 s⁻¹ for the first, less than 1e-05 s⁻¹ for the second.

A12G A15U G35A and G9C U45A cannot be ordered by “self-cleavage kobs at 2500 uM GlcN6P” value: less than 1e-05 s⁻¹ for the first, less than 1e-05 s⁻¹ for the second.

A12U G38U U49A and A12U A15U C50A G51A G59C cannot be ordered by “self-cleavage kobs at 2500 uM GlcN6P” value: less than 1e-05 s⁻¹ for the first, less than 1e-05 s⁻¹ for the second.

Going from A12U A14U G66A to C8U G51U U57C C58A, the “self-cleavage kobs at 2500 uM GlcN6P” value falls from 0.000704 ± 0.00016 s⁻¹ to less than 1e-05 s⁻¹.

C8A U46G C61A U65C and C8U C34U G41U cannot be ordered by “self-cleavage kobs at 2500 uM GlcN6P” value: less than 1e-05 s⁻¹ for the first, less than 1e-05 s⁻¹ for the second.

C10U A33G A39G G41C C67U and C10A C11A G51U A52U cannot be ordered by “self-cleavage kobs at 2500 uM GlcN6P” value: less than 1e-05 s⁻¹ for the first, less than 1e-05 s⁻¹ for the second.

Going from C10G U47G G51A to G13A A15U C58G U65G C70G, the “self-cleavage kobs at 2500 uM GlcN6P” value rises from less than 1e-05 s⁻¹ to 7.13e-05 ± 3.5e-05 s⁻¹.

G13A U30A U45A U57G G60U U65C C68G and C8U U31A G43U U55A cannot be ordered by “self-cleavage kobs at 2500 uM GlcN6P” value: less than 1e-05 s⁻¹ for the first, less than 1e-05 s⁻¹ for the second.

Compared with C11A C50U C61U C67G, C10U U45A is 5-fold lower in “self-cleavage kobs at 2500 uM GlcN6P” value: 0.000136 ± 5.6e-05 s⁻¹ for the first, 2.72e-05 ± 1.3e-05 s⁻¹ for the second.

G13A A36G C58G C68G and A12G G62A U69A C70A are within error of each other in “self-cleavage kobs at 2500 uM GlcN6P” value: 0.000157 ± 5.4e-05 s⁻¹ for the first, 0.000135 ± 5.1e-05 s⁻¹ for the second.

G9C A33C A48G U54G and C8A G40C U47A A64U cannot be ordered by “self-cleavage kobs at 2500 uM GlcN6P” value: less than 1e-05 s⁻¹ for the first, less than 1e-05 s⁻¹ for the second.

A12G C34U A52U and C8U U57G C71G cannot be ordered by “self-cleavage kobs at 2500 uM GlcN6P” value: less than 1e-05 s⁻¹ for the first, less than 1e-05 s⁻¹ for the second.

G9A G40U G63A A64U and C8A U31C A42U U65G cannot be ordered by “self-cleavage kobs at 2500 uM GlcN6P” value: less than 1e-05 s⁻¹ for the first, less than 1e-05 s⁻¹ for the second.

First: A12C G29A U45G U46C
Second: C11U G60A G62U C67G
The “self-cleavage kobs at 2500 uM GlcN6P” value of the first is higher: 0.000151 ± 5.3e-05 s⁻¹ for the first, less than 1e-05 s⁻¹ for the second.

G9A G29C G35A G44U U46A A64C and C8A G13U U56G A64G cannot be ordered by “self-cleavage kobs at 2500 uM GlcN6P” value: less than 1e-05 s⁻¹ for the first, less than 1e-05 s⁻¹ for the second.

Going from A12C A39G U47C to A12C A48G C58G, the “self-cleavage kobs at 2500 uM GlcN6P” value falls from 0.00269 ± 0.00067 s⁻¹ to 4.08e-05 ± 1.8e-05 s⁻¹ (66-fold).

Going from G9A C10U U31C G44A to G9U A14G C61A A64G C70G, the “self-cleavage kobs at 2500 uM GlcN6P” value rises from less than 1e-05 s⁻¹ to 6.76e-05 ± 2.1e-05 s⁻¹.

C8G G29U A36C A48G C70U and C10U G13A A33U cannot be ordered by “self-cleavage kobs at 2500 uM GlcN6P” value: less than 1e-05 s⁻¹ for the first, less than 1e-05 s⁻¹ for the second.

First: C11U A12C G32A G41A C68A
Second: A12C A14U U31C U56G
The “self-cleavage kobs at 2500 uM GlcN6P” value of the first is lower: less than 1e-05 s⁻¹ for the first, 0.0134 ± 0.0063 s⁻¹ for the second.

C8U G13U A39U A42G and C11U C16U A53C C68A C70G cannot be ordered by “self-cleavage kobs at 2500 uM GlcN6P” value: less than 1e-05 s⁻¹ for the first, less than 1e-05 s⁻¹ for the second.

A12G G40U C67U and A12G G37U A53C G62A A64U C68G cannot be ordered by “self-cleavage kobs at 2500 uM GlcN6P” value: less than 1e-05 s⁻¹ for the first, less than 1e-05 s⁻¹ for the second.

C10A G29A A33G A48U and G9C A48C G51C cannot be ordered by “self-cleavage kobs at 2500 uM GlcN6P” value: less than 1e-05 s⁻¹ for the first, less than 1e-05 s⁻¹ for the second.

A12G A64U C67G and G9U A15C G32C cannot be ordered by “self-cleavage kobs at 2500 uM GlcN6P” value: less than 1e-05 s⁻¹ for the first, less than 1e-05 s⁻¹ for the second.

C10U U31G U49A G62U and G9A G35C A64C C71U cannot be ordered by “self-cleavage kobs at 2500 uM GlcN6P” value: less than 1e-05 s⁻¹ for the first, less than 1e-05 s⁻¹ for the second.

C11G G13U G29C and A12C G37U G38U cannot be ordered by “self-cleavage kobs at 2500 uM GlcN6P” value: less than 1e-05 s⁻¹ for the first, less than 1e-05 s⁻¹ for the second.

G9U U30A G38A G40C U56A C70A and C8G G9A A14U U31G A39C U47A A64G C70U cannot be ordered by “self-cleavage kobs at 2500 uM GlcN6P” value: less than 1e-05 s⁻¹ for the first, less than 1e-05 s⁻¹ for the second.

Variants of: B1
Assay: self-cleavage kobs at 10000 uM GlcN6P; higher = faster cleavage; RNA array
Conditions: with glucosamine-6-phosphate
Procedure, shortened: as §1

C10G A33G G51U and C8G A14U A39G cannot be ordered by “self-cleavage kobs at 10000 uM GlcN6P” value: less than 1e-05 s⁻¹ for the first, less than 1e-05 s⁻¹ for the second.

First: C11A G21U
Second: C11A A33G G35U A52G
The “self-cleavage kobs at 10000 uM GlcN6P” value of the first is higher: 0.000164 ± 3.4e-05 s⁻¹ for the first, less than 1e-05 s⁻¹ for the second.

Compared with C11U A33U G59A, G9A G13U U57C is lower in “self-cleavage kobs at 10000 uM GlcN6P” value: 0.000262 ± 5.4e-05 s⁻¹ for the first, less than 1e-05 s⁻¹ for the second.

First: C10U A33G A39G G41C C67U
Second: C10U U45A
The “self-cleavage kobs at 10000 uM GlcN6P” value of the first is lower: less than 1e-05 s⁻¹ for the first, 2.12e-05 ± 8.6e-06 s⁻¹ for the second.

C8A U31C A42U U65G and C11U C16U A53C C68A C70G cannot be ordered by “self-cleavage kobs at 10000 uM GlcN6P” value: less than 1e-05 s⁻¹ for the first, less than 1e-05 s⁻¹ for the second.

A12G A64U C67G and G9U U30A G38A G40C U56A C70A cannot be ordered by “self-cleavage kobs at 10000 uM GlcN6P” value: less than 1e-05 s⁻¹ for the first, less than 1e-05 s⁻¹ for the second.
